Test results: CN110272489A

Assays:
[1] = target: 狨猴(marmoset) Tim-3蛋白 (狨猴(marmoset)) (UniProt F7I881); experiment: ELISA, against ABTIM3 as reference
[2] = target: 人TIM-3 (recombinant antigen of the ELISA of Example 3: TIM-3-hFc captured on goat-anti-hFc, or Tim-3-his coated directly) (human) (UniProt Q8TDQ0); experiment: ELISA of hybridoma supernatant on human TIM-3 (Example 3)

| Binder | fold stronger than the positive control molecule [1] | ELISA 数值(OD450) [2] |
| --- | --- | --- |
| 人源化ab32抗体 (全人源化抗体) (antibody, human IgG4 S228P, kappa, V domains shown) VH: EVQLVESGGGLVKPGGSLRLSCAASGFTFSDYYMTWVRQAPGKGLEWVSSINYDGRNTYYLDSLKSRFTISRDNAKNSLYLQMNSLRAEDTAVYYCARGYYYYGSSPNYFDYWGQGTLVTVSS VL: DIQMTQSPSSLSASVGDRVTITCRASENIYSYLTWYQQKPGKAPKLLIYNAKTLAEGVPSRFSGSGSGTDFTLTISSLQPEDFATYYCQQHYGTPLTFGQGTKLEIKR | > 4 fold | – |
| mab15 (鼠源抗体) (antibody, V domains shown) VH: EVKLVESEGGLVQPGSSMKLSCTASGFTFSDYYMTWVRQVPEKGLEWVASINYDGRNTYYLDSLKSRFIISRDNAKNILYLQMSSLKSEDTATYYCARGYYYYGSSPNYFDYWGQGTTLTVSS VL: DIQMTQSPASLSASVGETVTITCRASENIYSYLTWYQQKQGKSPQLLVYNAKTLAEGVPSRFSGSGSGTQFSLRINSLQPEDFGNYYCQQHYGTPLTFGAGTKLELK | – | 1.14 OD450 |
